Results as given in the supplement of paper PMC12042874.
± gives the uncertainty stated by the source.

Assay: amyloid nucleation score (Sup35N fusion, yeast selection) (log enrichment); library NNK3; higher = more nucleation; inactive = no reads after selection
How it was run: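 Three technical output replicates were used for random libraries. Psi-negative yeast expressing peptides of 20 random codons fused to Sup35N were induced with 100 μM copper sulfate for 24 hours and grown 7 days at 30°C on medium lacking adenine and uracil, and input and output plasmid inserts were Illumina-sequenced, excluding sequences with under 100 input reads. The nucleation score is the DiMSum log enrichment of output over input reads, centred on the mode score of non-aggregating sequences.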

Substance: GLWRLSCKSYAWHF
- amyloid nucleation score: inactive

Substance: GLYSLYLFGTLYRQAQRGCE
- amyloid nucleation score: 0.52 ± 0.21

Substance: GMADKVDTCLWLMFY
- amyloid nucleation score: inactive

Substance: GMDSIWHFDCNLS
- amyloid nucleation score: 0.094 ± 0.81

Substance: GMGCTMLNYLMLWESFDTRP
- amyloid nucleation score: 0.586 ± 0.17

Substance: GMLGTGYVYPCWL
- amyloid nucleation score: inactive

Substance: GMNYNKMRTVLSRAPPRVRS
- amyloid nucleation score: inactive

Substance: GMRCEYMILTFGLSWKLLLI
- amyloid nucleation score: inactive

Substance: GMRFCVNVVCMRSLPSCAMK
- amyloid nucleation score: 1.43 ± 0.095

Substance: GMTDNVPLGVKVKREMCQFA
- amyloid nucleation score: inactive

Substance: GNASMLWDNMSVVFLRGTLY
- amyloid nucleation score: 1.53 ± 0.074

Substance: GNGIFGLSPR
- amyloid nucleation score: -1.04 ± 1.4

Substance: GNISIWGFRNSWALDLIAGY
- amyloid nucleation score: inactive

Substance: GNLNGILFRISRQKEM
- amyloid nucleation score: inactive

Substance: GNMKQWSIPPHIWTGQPPLM
- amyloid nucleation score: inactive

Substance: GNYIITLY
- amyloid nucleation score: inactive

Substance: GPDWYWNLNV
- amyloid nucleation score: inactive

Substance: GPGQLYLLDM
- amyloid nucleation score: inactive

Substance: GPLESIFNQFAVIATVPRVW
- amyloid nucleation score: inactive

Substance: GPTNGFMSLNNWYQPLDQPV
- amyloid nucleation score: inactive

Substance: GPTQIGNLMVTHKSQCSWFN
- amyloid nucleation score: inactive

Substance: GPVLGSCIRRH
- amyloid nucleation score: inactive

Substance: GQCVLCMVNVLYLWAKYTNR
- amyloid nucleation score: inactive

Substance: GQDEPDCVG
- amyloid nucleation score: 0.014 ± 0.52

Substance: GQDRYLLAAYK
- amyloid nucleation score: inactive

Substance: GQFCCVCARIKLCRYSFNCY
- amyloid nucleation score: 2.45 ± 0.082

Substance: GQTILC
- amyloid nucleation score: inactive

Substance: GRCSQGSLGSAG
- amyloid nucleation score: inactive

Substance: GRDAVLI
- amyloid nucleation score: -0.785 ± 1.1

Substance: GRDCICDLRMETIGDTFTGW
- amyloid nucleation score: inactive

Substance: GRDEQNHRFELVL
- amyloid nucleation score: inactive

Substance: GRDLLLRHTMSRGCQILLE
- amyloid nucleation score: inactive

Substance: GRGHGEGTRLASSTIVIMHV
- amyloid nucleation score: -0.395 ± 0.61

Substance: GRGVDWMKQWNVHRKVLSSL
- amyloid nucleation score: inactive

Substance: GRHKFRMVVIRAVRVSVLEN
- amyloid nucleation score: inactive

Substance: GRHSALRASFGL
- amyloid nucleation score: inactive

Substance: GRILLYLNEFFSGRIISLHK
- amyloid nucleation score: inactive

Substance: GRKDLKYIQSGDMQFQSSKW
- amyloid nucleation score: 0.138 ± 1

Substance: GRKKWGLSQSCDKLPMGHTS
- amyloid nucleation score: inactive

Substance: GRLCYNSTNYLRHAASCLSM
- amyloid nucleation score: inactive

Substance: GRMEGNRFIDRLLGLHTSSP
- amyloid nucleation score: inactive

Substance: GRRTARKIKAGPYLCWKDGT
- amyloid nucleation score: inactive

Substance: GRSMR
- amyloid nucleation score: inactive

Substance: GSAECGCFASVYMNSMIKTV
- amyloid nucleation score: inactive

Substance: GSCCNQG
- amyloid nucleation score: inactive

Substance: GSCSIGSINIAFASSSIVYG
- amyloid nucleation score: inactive

Substance: GSFVVMF
- amyloid nucleation score: inactive

Substance: GSGLLE
- amyloid nucleation score: inactive

Substance: GSHNAMLSAISADAGAWQRE
- amyloid nucleation score: inactive

Substance: GSILWGVNMRFLNITAGCDY
- amyloid nucleation score: inactive

Substance: GSKCWPDLQMLIFEVVHHRA
- amyloid nucleation score: inactive

Substance: GSMLTDIVCFKYKVWDPIIL
- amyloid nucleation score: inactive

Substance: GSMMSCWRLAESWVVSKPPG
- amyloid nucleation score: inactive

Substance: GSQRLLALWNY
- amyloid nucleation score: inactive

Substance: GSRKYRCVDIISFGEWAVLD
- amyloid nucleation score: inactive

Substance: GSRLHRFPNVKLDALFIYRW
- amyloid nucleation score: inactive

Substance: GSRSARMGVVRRGRRCSECY
- amyloid nucleation score: inactive

Substance: GSRVMMCPNT
- amyloid nucleation score: inactive

Substance: GSRYRWVTATTIMSCGYEQE
- amyloid nucleation score: inactive

Substance: GSSVELVIQSS
- amyloid nucleation score: 0.415 ± 0.28

Substance: GSVQAFCISKP
- amyloid nucleation score: inactive

Substance: GSYWKHVWLRYTSHGLTPQW
- amyloid nucleation score: inactive

Substance: GTASRG
- amyloid nucleation score: inactive

Substance: GTDSGTRSDNV
- amyloid nucleation score: 0.328 ± 0.63

Substance: GTFLIFDKFKLS
- amyloid nucleation score: inactive

Substance: GTFNIDVEVMVYRAGLFKHV
- amyloid nucleation score: inactive

Substance: GTIHLFYVFLLS
- amyloid nucleation score: 0.205 ± 0.38

Substance: GTIRQS
- amyloid nucleation score: inactive

Substance: GTRMNGSGFVKRAL
- amyloid nucleation score: inactive

Substance: GTSAH
- amyloid nucleation score: inactive

Substance: GTTSFVLVCVCWSG
- amyloid nucleation score: -0.409 ± 0.95

Substance: GVIIRFWYWQDYAASLEYTC
- amyloid nucleation score: inactive

Substance: GVMDDSDIL
- amyloid nucleation score: -0.492 ± 0.84

Substance: GVMMVMFARL
- amyloid nucleation score: 1.73 ± 0.091

Substance: GVPLQWSSHAWGFFCWKTPW
- amyloid nucleation score: inactive

Substance: GVQAITGPLSVQDVYRWAKP
- amyloid nucleation score: inactive

Substance: GVRQVMVSSFRGNHNQKDTS
- amyloid nucleation score: inactive

Substance: GVTLGQLR
- amyloid nucleation score: 1.42 ± 0.15

Substance: GVWKLVSRARNDSINLR
- amyloid nucleation score: inactive

Substance: GWHNGDKSYIFVYIRFGPMG
- amyloid nucleation score: 0.955 ± 0.16

Substance: GWIAYRGSDR
- amyloid nucleation score: inactive

Substance: GWKAPLTLRRTLSALDFVLY
- amyloid nucleation score: 0.371 ± 0.38

Substance: GWLRAMKSIVNLF
- amyloid nucleation score: inactive

Substance: GWMQGVLSELTTTLVMESAR
- amyloid nucleation score: inactive

Substance: GWRSTYYECSGKSVFNAG
- amyloid nucleation score: -0.217 ± 0.8

Substance: GWTGVVFPVVSINSYQFTLF
- amyloid nucleation score: 0.757 ± 0.33

Substance: GWVIDRLYGDDMSSILEL
- amyloid nucleation score: inactive

Substance: GYAHLLMANLRWSSTRLA
- amyloid nucleation score: inactive

Substance: GYLFGVRVGCVYELAFDGCR
- amyloid nucleation score: inactive

Substance: GYLQGIYYGFTSCRKTSNQD
- amyloid nucleation score: inactive

Substance: GYPVWYVDLFSAKVRMQ
- amyloid nucleation score: inactive

Substance: GYQLRRMMQTMRMKYRISSR
- amyloid nucleation score: inactive

Substance: GYRSTCVRRFCECRCRDITA
- amyloid nucleation score: inactive

Substance: GYTIYGRVNPLVCPWVLVSE
- amyloid nucleation score: inactive

Substance: GYTNKLKWGHRITINAFVYR
- amyloid nucleation score: -0.267 ± 0.68

Substance: GYVPHVFFRILRLVRENMLE
- amyloid nucleation score: inactive

Substance: GYYYNSMNFRWFIKMVVMVR
- amyloid nucleation score: inactive

Substance: HALNSCDEFGTVMELCSCGS
- amyloid nucleation score: inactive

Substance: HARFTDQKTTPIWCTSVFKK
- amyloid nucleation score: inactive

Substance: HAVLFSVDVSYYLVPALLFR
- amyloid nucleation score: inactive

Substance: HCNEYSGNVVSRG
- amyloid nucleation score: inactive

Substance: HCPVSIY
- amyloid nucleation score: inactive

Substance: HCRAYITEPCKTWLY
- amyloid nucleation score: inactive

Substance: HCSYEFNS
- amyloid nucleation score: -0.001 ± 0.4

Substance: HDCCDLGFSVDV
- amyloid nucleation score: inactive

Substance: HDCGYQITYGDNRIVYMCFV
- amyloid nucleation score: inactive

Substance: HDLNWNSMVRCRVNVSSVIV
- amyloid nucleation score: inactive

Substance: HDYYFDTRDTIRVIL
- amyloid nucleation score: inactive

Substance: HEELQKIMIFSCMCYLQVLT
- amyloid nucleation score: inactive

Substance: HELDSTTLCVFKPFPFHANL
- amyloid nucleation score: inactive

Substance: HEWATWRDVLQVTTFFVLHM
- amyloid nucleation score: inactive

Substance: HFCLEYTLNVTMHAWTL
- amyloid nucleation score: inactive

Substance: HFKFLYDS
- amyloid nucleation score: inactive

Substance: HFKVFT
- amyloid nucleation score: inactive

Substance: HFMMYMLQRVHELFILSKSM
- amyloid nucleation score: inactive

Substance: HFPSFFSIIPYRACNTACSA
- amyloid nucleation score: -0.984 ± 1.4

Substance: HFSFLL
- amyloid nucleation score: 1.37 ± 0.084

Substance: HGDDCGDRDCGGRKECTGIA
- amyloid nucleation score: inactive

Substance: HGLFTFVGCHCLCRN
- amyloid nucleation score: 0.939 ± 0.16

Substance: HGSSCTRWAWALMNILDCVM
- amyloid nucleation score: inactive

Substance: HGVWRLSYVVVGCPLTEVSP
- amyloid nucleation score: inactive

Substance: HICIQDCVD
- amyloid nucleation score: inactive

Substance: HINTWRLFRVGIPYVCVSDG
- amyloid nucleation score: inactive

Substance: HIRSSDHGGSLTGLTCRDTD
- amyloid nucleation score: inactive

Substance: HISWFIFLCGGSFDSVMLAN
- amyloid nucleation score: inactive

Substance: HITNGRGWRHGRVWSSIWFF
- amyloid nucleation score: inactive

Substance: HKDLRYGWSSS
- amyloid nucleation score: inactive

Substance: HKDTSDFISHVRVSPWPNKG
- amyloid nucleation score: inactive

Substance: HKGFVSKIGNN
- amyloid nucleation score: -0.4 ± 0.9

Substance: HKIWVVQQWGRRRQQ
- amyloid nucleation score: inactive

Substance: HKPFNFYLGLPLTVV
- amyloid nucleation score: inactive

Substance: HKSIYF
- amyloid nucleation score: inactive

Substance: HLGFVEYAAKYTMVVCGRAV
- amyloid nucleation score: inactive

Substance: HLGYPVVLVLLLPSDDSGHL
- amyloid nucleation score: inactive

Substance: HLLRCYMFIVDEVCWSVVAR
- amyloid nucleation score: inactive

Substance: HLMTQMATRRL
- amyloid nucleation score: inactive

Substance: HLRFFLRVVGRTFIFCHS
- amyloid nucleation score: inactive

Substance: HLSRCYCYNDVSLARNFNDR
- amyloid nucleation score: inactive

Substance: HLVAMMLCQLDTLTFYRYGG
- amyloid nucleation score: inactive

Substance: HLYDPVFTKVAPRSSGGYGQ
- amyloid nucleation score: inactive

Substance: HMFSGVG
- amyloid nucleation score: inactive

Substance: HNFLIMWKSVVVLAVAISAK
- amyloid nucleation score: 0.627 ± 0.18

Substance: HNGARG
- amyloid nucleation score: inactive

Substance: HNGDRVDY
- amyloid nucleation score: inactive

Substance: HNLLEETLTWCNIGRGWDD
- amyloid nucleation score: inactive

Substance: HPSSNLMHLM
- amyloid nucleation score: inactive

Substance: HQARIYVSYYPVLSFDPFRK
- amyloid nucleation score: 2.06 ± 0.074

Substance: HQTRIMPGLLGKRAFIRVRL
- amyloid nucleation score: inactive

Substance: HRDCRKFCSMNTHANMNMLS
- amyloid nucleation score: inactive

Substance: HRGIVGCLAYMHMNRIVATT
- amyloid nucleation score: inactive

Substance: HRTTWLIWPLS
- amyloid nucleation score: inactive

Substance: HSCCDEWRDNGEIGNSSNRE
- amyloid nucleation score: inactive

Substance: HSIGPVIKRCCVIFSLR
- amyloid nucleation score: inactive

Substance: HSLFIFNFGCL
- amyloid nucleation score: 2.96 ± 0.054

Substance: HSLTATINTGKLYKSVSKHG
- amyloid nucleation score: inactive

Substance: HSMQCNT
- amyloid nucleation score: inactive

Substance: HSRRYILNVP
- amyloid nucleation score: 0.935 ± 0.085

Substance: HSSSVTCI
- amyloid nucleation score: inactive

Substance: HSVSLNYLGIR
- amyloid nucleation score: inactive

Substance: HSWWLWNGFVGLAPLVDNFF
- amyloid nucleation score: inactive

Substance: HSYTWICVARLPHWFWTQCL
- amyloid nucleation score: 1.71 ± 0.075
